For test [1], the target named is PHOX2A, MYC- or HA-tagged (human) (UniProt O14813).
Test [2] has as its target PHOX2B +7Ala fused to GAL4 BD or VP16 AD (human) (UniProt Q99453). In words: two-hybrid; mammalian two-hybrid (CheckMate, Promega) in neuroblastoma SK-N-BE(2)C cells; GAL4 BD fusion (pBIND) and VP16 AD fusion (pACT), 80 fmol each, with 160 fmol pG5LUC; Dual-Luciferase assay.
The target in test [3] is PHOX2B +13Ala fused to GAL4 BD or VP16 AD (human) (UniProt Q99453). The test is described as above.

Substance “PHOX2B +7 alanine mutant, MYC- or HA-tagged (from UniProt Q99453 1-314) (natural protein)” returned a luciferase activity of the DBH promoter reporter in HeLa cells co-transfected with PHOX2A and the PHOX2B +7 alanine mutant (fold over the empty vector) in test [1] of 23. The substance “PHOX2B +7Ala fused to GAL4 BD or VP16 AD (from UniProt Q99453 1-314) (natural protein)” returned a fold increase in luciferase activity in test [2] of 1.7 fold. As for “PHOX2B +13Ala fused to GAL4 BD or VP16 AD (from UniProt Q99453 1-314) (natural protein)”, in test [3], the fold increase in luciferase activity was 2 fold.

For the origin of these results see PMC4933246.
